Measurements: patent US20220282288A1, “NOVEL OLEATE HYDRATASES” (BRAIN BIOTECH AG, priority 2019, published 2022)

What was measured:
[1] = Conversion of oleic acid to 10-hydroxystearic acid by cell-free extracts (HPLC); assay type: biochemical; details: for activity at 30° C. compared with the wildtype enzymes: FIG. 3; for conversion of oleic acid to 10-hydroxystearic acid: cell-free extracts, pH7.0, 30° C., 150 mM oleic acid, 60 min, FAD 0.1 mM, NADH 5 mM, HPLC analysis
[2] = Kim, Bi-Na et al. (2012); cited from earlier work
[3] = Effects of temperature on enzyme activity (oleic acid to 10-hydroxystearic acid); assay type: biochemical; details: pH7.0, 150 mM oleic acid, 20 min
Experimental: The reactions were performed in 100 mM citrate/phosphate buffer (pH7.0) containing MgSO4;
3.1 mg/ml total protein of Lactococcus lactis (a) or 5.6 mg/mL of total protein of chimeric oleate hydratase from Lysinibacillus fusiformis and Lactococcus lactis (b). FAD (0.1 mM) and NADH (5 mM) were applied for the FAD-reducing conditions. Reactions were started by the addition of 150 mM oleic acid for 20 min. At the relative activity of 100%, the specific enzyme activity of the oleate hydratase from Lactococcus lactis was 0.8 μmol min^−1 mg^−1 total protein and the specific enzyme activity of the chimeric oleate hydratase from Lysinibacillus fusiformis and Lactococcus lactis was 1.0 μmol min^−1 mg^−1 total protein.

[4] = Effects of pH on enzyme activity (oleic acid to 10-hydroxystearic acid, HPLC-MS); assay type: biochemical; details: citrate/phosphate buffer pH 5.6-8.0, 30° C., 40 min, 150 mM oleic acid
Experimental: The reactions were performed in 100 mM citrate/phosphate buffer (pH levels ranging from 5.6-8.0) containing MgSO4; 8.9 mg/ml total protein of Lactococcus lactis or 9.3 mg/mL of total protein of chimeric oleate hydratase from Lysinibacillus fusiformis and Lactococcus lactis. FAD (0.1 mM) and NADH (5 mM) were applied for the FAD-reducing conditions. Reactions were started by the addition of 150 mM oleic acid at 30° C. for 40 min. Following the reactions, the solutions of fatty acids and hydroxy fatty acids were recovered by three consecutive extractions with 1.6 volume of dichloromethane. After solvent evaporation, the resultant sample was diluted in ethanol and analyzed by HPLC-MS. Analyses were performed on an Agilent 1100 HPLC instrument equipped with evaporative light scattering detector (ELSD) and a Luna® C18 (2) HPLC column (RP-18e 5 μm, 250×4.6 mm) maintained at 50° C. The elution system consisted of ddH2O with 0.1% formic acid (A) and methanol with 0.1% formic acid (B). The gradient was set as follows: 0 min (80% B); 15 min (100% B); 23.2 min (80% B) at a flow rate of 0.7 mL min^−1.
Data represent the mean±standard deviation of three independent experiments (FIG. 5A and FIG. 6A).

B1: 1LI-2Lf: chimeric oleate hydratase: 193 N-terminal amino acids of Lactococcus lactis enzyme and 397 C-terminal amino acids of Lysinibacillus fusiformis enzyme (protein)
chain: MRYTNGNYEAFVHPRKPENVDQKSAYIIGAGLAGLATAVFLIRDGQMSGDRIHILEELPLSGGSLDGSFIPHDGFVVRGGREMENHFECLWDLFRTIPSLEVDNASVLDEFYRIDRDDPNSSNCRIIHNRGERVDDDGKFTLSPKAQEEIIKLFMTKEELLVGKTIEDCFTDEFFESNFWLYWCSMFAFEKWHSAMEMRRYIMRFIHHIGGLPDLSALKFTKYNQYESLVLPMIKYLEGHDVDFQYNTVVENVLVDKVGDKKVAHTLVLRKNGVKENIELTENELVFVTNGSITESTTYGDNYTPAPVNKELGGSWSLWKNIAAQDTDFGRPEKFCDNLPKESWFVSATLTTLDDRVAPYIEKISKRDPYAGKVVTGGIVTATDSNWMLSYTLNRQPHFKHQPKDQLVVWIYGLLSNKPGDFIKKSITECSGIEIAQEWLYHMGVPVDEIPDIAQNSCNTIPCYMPYITSYFMPRAMGDRPLVVPEGSANLAFIGNFSETVRDTVFTTEYSVRTAMEAVYQLLNIDRGVPEVFASSFDVRTLLASTARLLDGKKLTDIDAPFILKQIGKLGIHKTKDTIIYDLLKESELI
modifications: OhyLlac579Lfus
notes: chimeric oleate hydratase: 193 N-terminal amino acids of Lactococcus lactis enzyme and 397 C-terminal amino acids of Lysinibacillus fusiformis enzyme
- activity at 30° C. compared with the wildtype enzymes [1]: higher than the wildtype enzyme from Lactococcus lactis and lower than the wildtype enzyme from Lysinibacillus fusiformis
- conversion of oleic acid to 10-hydroxystearic acid [1]: confirmed

B2: oleate hydratase from Lysinibacillus fusiformis: oleate hydratase of Lysinibacillus fusiformis, known from the prior art (protein, listed as Lysinibacillus fusiformis)
chain: MYYSNGNYEAFARPKKPEGVDGKSAYLIGSGLASLSAACFLIRDGQMKGENIHILEELDISGGSLDGILNPTRGFIIRGGREMEDHFECLWDLFRSIPSLEVDNASVLDEFYWLNKEDPNYSKCRLIKDRGQRLEDDGKFTLSDQSSEEMIKLFFTPEEKLEDKKITDVFSEEFFESNFWLYWSTMFAFEKWHSAMEMRRYIMRFIHHIGGLPDLSALKFTKYNQYESLVLPMIKYLEGHDVDFQYNTVVENVLVDKVGDKKVAHTLVLRKNGVKENIELTENELVFVTNGSITESTTYGDNYTPAPVNKELGGSWSLWKNIAAQDTDFGRPEKFCDNLPKESWFVSATLTTLDDRVAPYIEKISKRDPYAGKVVTGGIVTATDSNWMLSYTLNRQPHFKHQPKDQLVVWIYGLLSNKPGDFIKKSITECSGIEIAQEWLYHMGVPVDEIPDIAQNSCNTIPCYMPYITSYFMPRAMGDRPLVVPEGSANLAFIGNFSETVRDTVFTTEYSVRTAMEAVYQLLNIDRGVPEVFASSFDVRTLLASTARLLDGKKLTDIDAPFILKQIGKLGIHKTKDTIIYDLLKESELI
modifications: Oleat Hydratase
notes: oleate hydratase of Lysinibacillus fusiformis, known from the prior art
- temperature of maximal enzyme activity [2]: 35 °C

B3: oleate hydratase from Lactococcus lactis: oleate hydratase of Lactococcus lactis strain A106, previously annotated as linoleate isomerase (protein, listed as Lactococcus lactis)
chain: MRYTNGNYEAFVHPRKPENVDQKSAYIIGAGLAGLATAVFLIRDGQMSGDRIHILEELPLSGGSLDGSFIPHDGFVVRGGREMENHFECLWDLFRTIPSLEVDNASVLDEFYRIDRDDPNSSNCRIIHNRGERVDDDGKFTLSPKAQEEIIKLFMTKEELLVGKTIEDCFTDEFFESNFWLYWCSMFAFEKWHSAIEMRRYIMRFIHHIEGLPDFSALKFTKYNQYESLVKPLISYLKDHGVDFKYGAQVENVEVDFSNGKKVAKAIVFADKKIKELTGNDLVFVTNGSITESSTQGSPTQVAPKTSELGGSWKLWQNLAKQSEEFGHPDVFCKDIPKEAWVVSATVTWKNLKIQPYFEKLTHRQLRSGKVVTGGIVTVKDSNWLLSFTTHRQPHFKEQNDQETVTWVYGLLSNTPGNYIKKPIEDCTGEEITQELLYHLGMPEEEIEAFVKENTNTIPVYMPFITSYFMLREPGDRPLVVPEQSVNLAFLGNFAETERDTVFTTEYSVRTAMEAVYQLLNVDRGVPEVYASAYDLRTLASSAYYLSDKQKLEDLELSFIKKQALKVGLKKIKGTYIEELLEDAGLI
modifications: Oleat Hydratase
notes: oleate hydratase of Lactococcus lactis strain A106, previously annotated as linoleate isomerase
- specific enzyme activity at the relative activity of 100% [3]: 0.8 μmol min^−1 mg^−1 total protein
- temperature of highest enzyme activity (temperature optimum) [3]: 15 °C

B4: 1Lf-2LI: chimeric oleate hydratase: 193 N-terminal amino acids of Lysinibacillus fusiformis enzyme and 394 C-terminal amino acids of Lactococcus lactis enzyme (protein)
chain: MYYSNGNYEAFARPKKPEGVDGKSAYLIGSGLASLSAACFLIRDGQMKGENIHILEELDISGGSLDGILNPTRGFIIRGGREMEDHFECLWDLFRSIPSLEVDNASVLDEFYWLNKEDPNYSKCRLIKDRGQRLEDDGKFTLSDQSSEEMIKLFFTPEEKLEDKKITDVFSEEFFESNFWLYWSTMFAFEKWHSAIEMRRYIMRFIHHIEGLPDFSALKFTKYNQYESLVKPLISYLKDHGVDFKYGAQVENVEVDFSNGKKVAKAIVFADKKIKELTGNDLVFVTNGSITESSTQGSPTQVAPKTSELGGSWKLWQNLAKQSEEFGHPDVFCKDIPKEAWVVSATVTWKNLKIQPYFEKLTHRQLRSGKVVTGGIVTVKDSNWLLSFTTHRQPHFKEQNDQETVTWVYGLLSNTPGNYIKKPIEDCTGEEITQELLYHLGMPEEEIEAFVKENTNTIPVYMPFITSYFMLREPGDRPLVVPEQSVNLAFLGNFAETERDTVFTTEYSVRTAMEAVYQLLNVDRGVPEVYASAYDLRTLASSAYYLSDKQKLEDLELSFIKKQALKVGLKKIKGTYIEELLEDAGLI
modifications: OhyLfus581Llac
notes: chimeric oleate hydratase: 193 N-terminal amino acids of Lysinibacillus fusiformis enzyme and 394 C-terminal amino acids of Lactococcus lactis enzyme
- specific enzyme activity at the relative activity of 100% [3]: 1.0 μmol min^−1 mg^−1 total protein
- activity at 30° C. compared with the wildtype enzymes [1]: higher than the wildtype enzyme from Lactococcus lactis and lower than the wildtype enzyme from Lysinibacillus fusiformis
- conversion of oleic acid to 10-hydroxystearic acid [1]: confirmed
- pH optimum [4]: 6.5
